Values joined by “and” are separate entries in the source; they are usually repeats but may differ in a detail not shown here. Equal entries are not always repeated.

Consider two substances from patent US20180134804A1.

Assay [1] concerns the target HLA-A0201 on T2 cells without added peptide (human). In words: flow cytometry: BB7 staining of T2 cells without peptide.
Assay [2] deals with Ras10-WT peptide/HLA-A0201 complex on peptide-pulsed T2 cells (human).
For assay [3], the target named is Ras10-G12V peptide/HLA-A0201 complex on peptide-pulsed T2 cells (human).
Assay [4] has as its target CD3 on purified human T cells (human) (UniProt P07766). In words: flow cytometry of purified human CD3 T cells, BiTE at 10 ug/ml then FITC secondary; secondary alone (GA6His_F 1;100) 8.13, unstained 8.13.
The target is the same in assay [5]. In words: flow cytometry of purified human CD3 T cells, BiTE at 0.1 ug/ml then FITC secondary; same sample file as in FIGURE 5B.
For assay [6] the target is unchanged. In words: flow cytometry of purified human CD3 T cells, BiTE at 10 ug/ml then FITC secondary; same sample file as in FIGURE 5B.
The target is the same in assay [7]. Kind of assay: flow cytometry of purified human CD3 T cells, BiTE at 1 ug/ml then FITC secondary; same sample file as in FIGURE 5B.
The target is the same in assay [8]. Kind of assay: flow cytometry of purified human CD3 T cells, BiTE at 1 ug/ml then FITC secondary; secondary alone (GA6His_F 1;100) 8.13, unstained 8.13.
Assay [9] shares this target. Kind of assay: flow cytometry of purified human CD3 T cells, BiTE at 0.1 ug/ml then FITC secondary; secondary alone (GA6His_F 1;100) 8.13, unstained 8.13.

Sequence of CD3 on purified human T cells (human) (P07766 23-207): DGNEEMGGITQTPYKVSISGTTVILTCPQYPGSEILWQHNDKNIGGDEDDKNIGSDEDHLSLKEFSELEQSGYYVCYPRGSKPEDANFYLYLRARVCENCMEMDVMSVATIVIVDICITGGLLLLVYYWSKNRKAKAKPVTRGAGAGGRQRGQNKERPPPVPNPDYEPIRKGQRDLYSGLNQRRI

In the case of BB7 (antibody), the Median:FL1-H in assay [1] came to 316.
In the case of “isotype control BiTE (bispecific antibody)”, the Median:FL1-H in assay [2] is 10.7 and 11.2; in assay [3], 11.2 and 11.4; in assay [4], 604; in [5], 39.6; in assay [6], 604; in assay [7], 229. For the same substance, the Median:FL1-H was 229 in [8] and 39.6 in assay [9].
